Substrate: NC(=O)c1ccc[n+]([C@@H]2O[C@H](COP(=O)([O-])OP(=O)(O)OC[C@H]3O[C@@H](n4cnc5c(N)ncnc54)[C@H](O)[C@@H]3O)[C@@H](O)[C@H]2O)c1
Assay: purified protein
Format: biochemical, Triticum aestivum

B1: Ga3PDHase (phosphorylating NAD+-dependent glyceraldehyde-3-phosphate dehydrogenase, EC 1.2.1.12) (Triticum aestivum) (protein)
chain: MGKIKIGINGFGRIGRLVARVALQSPDVELVAVNDPFITTDYMTYMFKYDTVHGQWKHHEVKVKDSKTLLFGEKEVAVFGCRNPEEIPWAAAGAEYVVESTGVFTDKDKAAAHIKGGAKKVIISAPSKDAPMFVCGVNEKEYKSDIDIVSNASCTTNCLAPLAKVINDRFGIVEGLMTTVHAMTATQKTVDGPSSKDWRGGRAASFNIIPSSTGAAKAVGKVLPELNGKLTGMAFRVPTVDVSVVDLTVRLAKPATYDQIKAAIKEESEGNLKGILGYVDEDLVSTDFQGDNRSSIFDAKAGIALNDHFVKLVSWYDNEWGYSTRVVDLIRHMHSTK
notes: recombinant wheat gapC (NCBI EF592180), homotetramer, E. coli
K0.5: 136 µM
